Assay results as given in a protein production outcome set (Wang et al. 2014).

Test: label from the status in PepcDB records

Sequence | protein production
MTNHQHPQTTTQWIDLIANSELPAITSTARMLDKFSNDDKSSLPKLSEAILHDQGLSSCLLKVANNIQHISINKVTTVSRASVVLGIQSVKNICLTAKLVSSLLASKSLDINVYEQLTQLMANSFYAGMLAKMMVPNYSEEIQEEVYLAAMLYRIGESAFWSAGGDVAKKLANYEAKSPQDFNQYCRKEMGTNFSELSKGLAGTWNLSDLLIKALDQPTTRTDEVKVIYFADKLSAIIAKPEGCEEDYHKLLKEIAYIVGISVRQLTVRIEHTREQAEKLLSSYGAEILTERINSLPTAEDFKSLGGDFDTREVVSKDKALLNGFMKLTKLIQNSKDFNEYLQLTLESLALTFAFDRSSFLMLVDDRARVKSRLVVNKNAQDDASKINIDIKHSDNVIARVISTDTAALINDHQEIRWRDLVTEEISEVIVEGAIAFVPVKIGGKAIGVICLQLLSPDQKIETQDFQQICAFIDHLNMCLTMIKYS | failed
MSATYQLALQQLTDSALPTGAFAHSLGFESYIHRGLVRDESTFSTWLQAFVSQQLSYSDGLALRFLFEGVDVGLLDGVLSAQLLAREVREASLKMGGRLLEIGGEVFPSAELEAYRGLVRAGSASGHQPLAFGVIARSLGVPLEEALSAYLFATVTSLTQNAVRAIPLGQNAGQRVLRQAHDAVAAAIHVVAQLCWDDFGAVSPGLEISQMRHERQRARMFMS | failed
MSSNPTSSVREFEYKAEMKQLLNLIVHSLYTHPEIFLRELISNASDALGKARFRMLSSDEGLDKSGDLKITITVDKESGSFVIEDTGIGMSEEELISNLGTVASSGTLGFMEALKEQQKEGQRLDANLIGQFGVGFYSVFMVTDEVTVETKSIESGLQGWRWKSSGQGSYTIEPVEREARGTRISFILKEEFREFAQEYRVEQIIKKYSNFVEYPIYIGSRQINSMTALWQRPKSELKQEEVNEFYKFIANDFKDPLDYLHVSVEGAVSFKALLFIPSEAPMELLYNQGALEKRGPQLYVKKVLIQHECRDLLPEYLRFVSGVVDTEDLPLNVSRELVQASPVMAKIKQILTTKLLGWFDTIAKEEPEKFRAFYKAFGTILKIGLNTDFTNRDKLIDLLRFETTKTVEGEYVTLKEYVGRMAEGQTEIYYHSGSSRAQMLAHPNLEYFRKRDIEVLLLSDPVDVFVIPSIFEYDKKPLKSIEKAEIDMSTVEPEGERLSAEGTVGVISLFKEVLGERVADVVESRRLVSSPVTLVSGKDALDSQFEKMMKMMNKDADMPSTKKILEINTAHPIIRNLAGKHAVGLSTDPVVRAAVTQLFESALLLEGDLESVADYVSRMNELVEAATRS | failed
KRIQYSVITILVLLIAVILIYMFSPLSKIAHVNINGNNHVSTSKINKVLGVKNDSRMYTFSKKNAINDLEEDPLIKSVEIHKQLPNTLNVDITENEIIALVKYKGKYLPLLENGKLLKGSNDVKINDAPVMDGFKGTKEDDMIKALSEMTPEVRRYIAEVTYAPSKNKQSRIELFTTDGLQVIGDISTISKKMKYYPQMSQSLSRDSSGKLKTRGYIDLSVGA | failed
MSITLLTGIGEIFLGILLNVFIGKIVKIVFKKDGTLPRVPVRFIGITLILNGVGNMVHL | failed
MRQHGKVSEVTEKKTAVYVDDQQRILIRQLARSWLWRSELPTWLLIVTVYGGWFACVAGWRTLGLFPATLLLIWFTAWYMSLQHELIHGHPTRLAWFNQLLGTLPLAVWYPYGVYRDSHLAHHRNHLLTHPEDDPESYYVTAESWQRFSAWQRRLIHLRNTFWGRLLLAPMMDIIHTLNSALRAFREGDRRAIAMWSLHLLLLTGLLTWMAAQGFSPLWFVLAVSYPALALTKVRSFLEHRAADDPLARSVINEAGLPWRVLFLNLNYHAVHHDLPGVPWYALRQLYLHRQAAYLQRNQGFLVRGYGEWRRHFSRRAVAVNAHPGFGEQAQAGGEHG | failed
MSYILIVTIAIVIFSLIFDFINGFHDTANAVATAVSTRALTPRRAILLAAVMNFIGALTFTGVAGTITKDIVDPFKLQHGLVVVLAAIIAAIIWNLITWLYGIPSSSSHALIGSIAGAAIASKGSFAVLHYQGFTKIIIVLIISPIIAFCVGYMMYTIVKIVFKNSNLTRTNRNFRFFQIFTAALQSFSHGTNDAQKSMGIITLALIVGNLQDGSNVEPQVWVKVVCATAMGLGTAVGGWKIIKTVGGNIMKIRPANGAAADISSALTIFVASSLHFPLSTTHVVSSSILGVGASNRAKGVKWSTAQRMVVTWVITLPISAVLAAIIYFIIHLFLK | failed
MNSSIVNAGIDPQVRESLKSFVGEAIDYANTSGKDAAIAKFNDQNGTFVRGNLYVYAFDYNGTTLALPYQPQLIGTDLSGLQDPYGVNYTKVEIFLEHHHHHH | failed
MLSYPRYLAVFLLIIGQSCLAFAEEQPQVGQLFKLFDSGESMPRATIEQNIALLEKLISSDDIERIEKLNQIKCWNQASDTEEEIAKALNYAEQALSQIPSTASTHFITDINLCRAWFLQLTGDINGAMEGYTKSVQSAYEHEDIKLIADARSLRGALYSYTGDFSEALDDLVTAQGLYESLNLTGWANINLTDIATSFRRYGDPESAIKYYKKLKELYLKNGNKEQVANVMSEIGIALDEMGKHEQAIEHFRFSYQYFKDQKLNIVAAINATNIAYSLIQLNRLDEAENYLNEAAPDISENEPAAYSFMKLFMGKIRNQQGRYQEALDELSAAEHAFRVMHNDRGLIQLLQLKSDIYAAMEDLPQAYHILQEFIALTKKVDDSSIAHQTTELKVKFDTSWIESENKRLIDNQKLKEQELTLLEKNKSLQLIILLLTGCILATVSLFAYKQVHRNRQLQTIALTDYLTQLPNRRHIYAQAEQYFQLALKQQIPFSIIIFDADHFKKINDNFGHEIGDQALLTIAEASKTLTTDRNLVGRIGGEEFLILLPNTDADRAWKLAHELQTLITRFGAINLPVELKLTVSAGVATLPIQSELQDQNFARLLKRADNALYEAKNAGRNCVKAAEITG | failed
PCYENKFAPRCARCSKTLTQGGVTYRDQPWHRECLVCTGCQTPLAGQQFTSRDEDPYCVACFGELFA | not failed
MCRSIRLTAMAAFLVIMGGAACSGKPVLPDLTLEGGDRSYSELITAQQHSFSIHTPSDAPLENSSIRIEVNEGESLTPRLRSSGSVDCSSLASVVAGVVAPGMTAEEKALALWRFVMDSCYHGRWGTSLDGLEHLNVYGYGYCGTYAAVLESLWWTAGLTARHVNIGNHAATEVYYNNDWHYIDADTRTYFLLKDNRTIASLDELNDNVELWTMLRRGSSRKAGKKYYYMTMHPNGHGRSPVYTNDFTMAKGDVLTLDWQSRGKWCLNRGQEGGKEPAGEPPFYGNGLFTFHRDFKDRSQSRSGLVSSTNIDWQDAAAGYLHPQHAKQEASLVYRVKTPYFIPETTLSGSFFRKGTGDSAAIDISTDNGKRWVSLWRADATGTVKASVVTAQTQQVTTDVPWKYSYLMRLRMRAGKSPRDVGAYHLDSASVLAYNPRCLPALRPGDNRITFSDGSQARRTVRVTYNWHDDLPITLSKETPFEGEEITVSARVTNRGAAEAHNVPVAVYLGNPAQGGVEIGRDTISRIPVGGTGLARVQWKATRKLAGRAANPGVPVYAVVDPDNRVAESDKANNVFSRIVKVLNPPDVRIPSESFIRFERAKDHSQSLAVVASVRNFSNSADYGLFLDDHGTGEAVEVTVYDGNPAKGGKVIGRETISRLLPLEHRNVSVKWDIAQLKGVHTVYVQVHPPANLTRAPGKRAPAAMAVPVDLDAYRSCKGI | failed
MMRTGFQGVARLVHHKALYRSPQTLPRLHLASAFGSSTDSLVARFCGEKTDLKDYALPNASWCPDMLSLYQEFLEKTKSGSWVKLPSFKSNRDHIRGLKLPFGLVAASDKQDWRLFTRSIQLEGQGYEYVIFFHPSEKKSVCLFQPGPYLEGAPGFAHGGSLAALMDETYSKTAYLAGEGLFTLSFNIKFKNLIPVGSLAVLDLQVEKIEDQKLYMSCIAQSRDKQTVYAKSSGVFLQLQLEEEQSGEQ | failed
MDDDPHFDQNVQTVIAKTEAYITESVKAGGTGRALRDAHAKGYGLVRGEVEILDGLPPEYAQGIYATPGTHDALIRFSNGSPHAGADARLGAATGLALKIFDIPGPTLLEDEPDTGTFDYANINGPIFFCNTVEHYLFIQELFLNAPAYFSQGRPGAHRFFTDFVTGKGTLDQDDWAWDEFLAFLRLSKTPPANLLLSSYWTMGAVRHGDYIAKVRITPDPSFAAAVVRRDIDPTSAQEVFRPALEAELQERPYAFDIQVQLCTDLERMPVEDTTVEWPEQLSPSVTVAKLRLPRQDISGPENLEKMDSLSFTPWRVTAEHAPLGNIMRSRKEVYRQSSMELEHHHHHH | failed
MKVILVNGSPHKDGCTFTALEEVAKALNEEGIDTEFFHLGTKPLNGCIACGHCRKHQRCVFPDSVNEFLDLAQEADGFIFGSPVHYAAAGGAITSFLDRVFYTDSGSGKQAFYLKPAAAVVSARRAGTTASLDQLNRYFTIKEMPIISSKYWNMVHGNTPEEVRKDEEGLQIMRTLGRNMAWFLKCKEAGIRAGIPFPSQEEGLRTNFIRLEHHHHHH | not failed
MNMAHTTTSMEIFGSPEQVWQLIGGFNSLPDWLPYIPSSKLTEGGRVRHLANPDGDTIIERLEVFNDKERYYTYSIMNAPFPVTNYLSTIQVKEGTESNTSLVEWSGTFTPVEVSDEEAINLFHGIYSDGLKALQQAFLDLEHHHHHH | not failed
MWAYLAILAMAYVTYKTKALDIKGIIAALLLGVIIVTLGGIIPFIALLAFLVMGTLATKFRYREKRKMGLIDESIRSVGNVLGNGLAPLLFVIVEFIIKQDFGWAGVLSSIAVANADTLASEIGKVFGKNPRIITNLKPAKPGEEGAVSFAGEFAALLGAFVISLFGLSLTEYGIQMIVSVTLAGLIGANIDSLIGATFEKNGYFGNNMTNFIATLLGGLLGMALFLLLV | failed
MGGMRWLLLAKQPALGGAAALEGVMMKAPWAWALAVRLPDGRIHVERHEERALTERYPWTRLPLLRGVVALFDALSVSYRALARSAELAGGEEVPRGALWGTVA | failed
MPLLFDSQMTPITNSGWRRHWFEIVYRHDTPPSRNFDLLLMSAILGSVLVVMLDSVLILQAHWKYFLYTLEWLFTLIFTADYLIRLVVVQQRLRYVLSIWGIIDLLSILPTYLSLFMPGTQSLLIVRVLRLLRLFRILKMTHYVEESGELIQALWRSRRKVMLFICTVMTIAMIAGATMYVIEGPQHGFTSIPTGMYWAIVTMTTVGFGDITPQSTLGRFVTSALILIGYSIIAVPTGIYTAELTQGLLRSEEEHRHDMRTCPHCGLQGHDHDARYCRNCGGILPQTLHEPNPATQQ | failed
MDSGFTLRAPRNDKRRNPMPAILGTGEHRYRVVENFAKLPDGWQLTDVAAVAVDSLDRVYVFNRGAHPMVVLDREGNFLRSWGEGLFSRAHGLHIDADDNLYCTDDGDHTVRKCTSDGKVLLTIGIPAKPAPFMSGEPFHRCTHTALSPKGEIYVSDGYGNARVHKFTPDGKLIKSWGEPGTDPGQFNIVHNIATDSDGWVYVADRENHRVQVFNGEGKYETQWNNLHRPCALCCCGGRSPTFVIGELGPGLDINRNVPNLGPRLSIVDAKGNRIARLGGEEGPGVASGKFLAPHGIALDSKGDIYVGEVGVTNWATSFPDQEMPAVVRATRCLQKLERVRE | failed
MNDRSLGILLMFLTVIFWGISFVATKIILVYIPPITLGFIRFAIAAMILIVLIRNFPSYSKKDFLNLVLAGFLGITSYFLFENVALEYTTATNAALIAATVPIFYLMVSDLVERRIPSKIQYFGSLIGLFGVSILILNGRLILELNPIGDLLMIGAVLSWVLYTFVIQKLEKHDNLTVTRDITLIGVLLSVPFMLLEFGSKGVLDLGVFLNPPLTFAVLYLAIFCSAIAYLFWNMSIRLAGASTTNNGIYFIPIVAMIADSIILKNIPNIYATIGAVLVLFGVYISEKGDKLKIKL | failed
EHFNDMIEKRVKSEIRNQVDLKKPMVRISVAISGGKDSSVTLYLLHKILSKRRNVELTAFTVDEGISGYRPAGLESAIKLTKMLGVDHSIIRFQDSFGMTLDSIVGADASRIPCSYCGPLRRKLINEMAERQNADYVALGLNLDDYSQSILMNVAKGDYDRLLRMSPQKEAKDGLVRRIAPLRSVLEKEVVLYAVINGIPFDSSWC | failed
